According to paper PMC2173041:

Molecular target: Notch receptor (Drosophila) (UniProt P07207)
Assay: competitive cell aggregation assay

Sequence of UniProt P07207 (P07207 53-2703): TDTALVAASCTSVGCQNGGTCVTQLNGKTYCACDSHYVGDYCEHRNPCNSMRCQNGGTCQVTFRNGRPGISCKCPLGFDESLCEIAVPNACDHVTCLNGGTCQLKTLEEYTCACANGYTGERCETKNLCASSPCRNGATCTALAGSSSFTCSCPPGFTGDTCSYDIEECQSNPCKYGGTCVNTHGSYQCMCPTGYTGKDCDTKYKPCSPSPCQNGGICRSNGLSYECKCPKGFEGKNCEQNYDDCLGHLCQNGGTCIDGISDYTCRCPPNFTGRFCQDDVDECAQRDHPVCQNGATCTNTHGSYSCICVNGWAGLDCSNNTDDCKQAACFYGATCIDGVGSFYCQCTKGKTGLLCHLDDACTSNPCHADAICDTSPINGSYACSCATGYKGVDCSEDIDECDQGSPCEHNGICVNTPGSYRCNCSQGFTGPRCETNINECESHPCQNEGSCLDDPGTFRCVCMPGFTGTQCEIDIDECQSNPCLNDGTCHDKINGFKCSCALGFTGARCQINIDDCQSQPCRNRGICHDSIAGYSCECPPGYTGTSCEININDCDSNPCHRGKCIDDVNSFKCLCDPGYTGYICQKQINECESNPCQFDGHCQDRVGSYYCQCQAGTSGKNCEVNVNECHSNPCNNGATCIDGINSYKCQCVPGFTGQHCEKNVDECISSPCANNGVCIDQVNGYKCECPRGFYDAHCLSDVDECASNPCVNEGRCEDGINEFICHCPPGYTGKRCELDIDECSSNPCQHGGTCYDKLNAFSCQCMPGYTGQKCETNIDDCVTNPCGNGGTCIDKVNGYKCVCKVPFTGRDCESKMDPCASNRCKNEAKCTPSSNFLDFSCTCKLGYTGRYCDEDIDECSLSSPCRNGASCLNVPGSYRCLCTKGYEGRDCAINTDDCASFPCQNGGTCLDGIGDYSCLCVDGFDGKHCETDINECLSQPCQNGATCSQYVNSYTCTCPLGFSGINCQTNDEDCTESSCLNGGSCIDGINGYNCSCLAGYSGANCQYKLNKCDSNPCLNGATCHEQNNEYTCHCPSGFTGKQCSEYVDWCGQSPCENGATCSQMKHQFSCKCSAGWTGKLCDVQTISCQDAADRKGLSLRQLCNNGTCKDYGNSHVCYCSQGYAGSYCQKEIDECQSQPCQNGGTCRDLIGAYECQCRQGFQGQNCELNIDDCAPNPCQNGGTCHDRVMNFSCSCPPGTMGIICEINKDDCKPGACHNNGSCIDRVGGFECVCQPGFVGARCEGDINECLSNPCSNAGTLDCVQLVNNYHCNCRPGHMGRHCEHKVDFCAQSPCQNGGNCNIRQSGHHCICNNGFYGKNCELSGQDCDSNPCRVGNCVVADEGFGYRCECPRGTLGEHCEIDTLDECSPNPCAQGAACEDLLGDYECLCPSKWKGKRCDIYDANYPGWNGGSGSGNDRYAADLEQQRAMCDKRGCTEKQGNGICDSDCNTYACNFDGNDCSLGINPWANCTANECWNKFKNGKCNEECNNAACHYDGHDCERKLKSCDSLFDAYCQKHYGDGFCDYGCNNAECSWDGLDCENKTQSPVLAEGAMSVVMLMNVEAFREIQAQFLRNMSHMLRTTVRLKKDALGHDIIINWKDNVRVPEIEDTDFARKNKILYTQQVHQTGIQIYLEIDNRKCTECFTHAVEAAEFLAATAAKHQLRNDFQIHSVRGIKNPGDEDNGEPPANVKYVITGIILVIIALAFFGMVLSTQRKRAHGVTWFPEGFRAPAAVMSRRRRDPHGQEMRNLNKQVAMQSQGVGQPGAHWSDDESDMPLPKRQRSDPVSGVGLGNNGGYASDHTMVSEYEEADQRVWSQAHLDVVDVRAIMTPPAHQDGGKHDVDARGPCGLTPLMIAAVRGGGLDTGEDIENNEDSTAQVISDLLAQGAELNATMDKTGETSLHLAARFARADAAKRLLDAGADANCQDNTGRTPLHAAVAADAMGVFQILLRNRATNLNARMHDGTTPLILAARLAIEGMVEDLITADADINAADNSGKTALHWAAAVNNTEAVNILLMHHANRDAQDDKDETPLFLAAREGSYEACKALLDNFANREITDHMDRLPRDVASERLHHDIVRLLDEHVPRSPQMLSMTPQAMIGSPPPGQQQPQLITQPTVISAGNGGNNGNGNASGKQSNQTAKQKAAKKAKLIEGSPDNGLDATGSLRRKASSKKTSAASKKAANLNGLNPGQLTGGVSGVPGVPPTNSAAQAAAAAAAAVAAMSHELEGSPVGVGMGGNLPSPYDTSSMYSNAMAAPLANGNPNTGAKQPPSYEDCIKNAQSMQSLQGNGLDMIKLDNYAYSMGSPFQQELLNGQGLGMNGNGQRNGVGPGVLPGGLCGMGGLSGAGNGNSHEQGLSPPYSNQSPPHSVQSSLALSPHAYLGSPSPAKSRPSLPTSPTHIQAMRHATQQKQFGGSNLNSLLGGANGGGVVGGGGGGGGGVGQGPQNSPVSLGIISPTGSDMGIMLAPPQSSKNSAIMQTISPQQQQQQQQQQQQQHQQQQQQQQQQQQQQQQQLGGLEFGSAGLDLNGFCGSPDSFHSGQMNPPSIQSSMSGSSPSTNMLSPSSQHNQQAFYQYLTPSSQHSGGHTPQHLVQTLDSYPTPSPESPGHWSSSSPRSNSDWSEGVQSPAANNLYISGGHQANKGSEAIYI

## DlEC, extracellular fragment of Delta released by cleavage (from UniProt P10041 19-581) (domain or fragment)
  percent inhibition of aggregation at >0.5 μM DlEC: < 20%
